Reference: PMC2818180

Target: Affinity peptide KRTGQYKL immobilised in PEG hydrogel
Test: absorption of bFGF into peptide-functionalized hydrogels

bFGF absorbed in gel at 4.4 µM monovalent peptide: 27.3 ng/mg-gel
Substance: Recombinant human bFGF (from UniProt P09038 143-288) (ligand)
